This is an account of results in publication PMC8322834 (Biochemistry, 2020).

This assay concerns the target DnaK (E. coli Hsp70 chaperone), ADP-state (E. coli, UniProt P0A6Y8 1-638). Kind of assay: fluorescence polarisation.

No end group written: not given here. AlexaFluor 488 = AlexaFluor 488 dye

DnaK (E. coli Hsp70 chaperone), ADP-state, sequence (P0A6Y8 whole entry): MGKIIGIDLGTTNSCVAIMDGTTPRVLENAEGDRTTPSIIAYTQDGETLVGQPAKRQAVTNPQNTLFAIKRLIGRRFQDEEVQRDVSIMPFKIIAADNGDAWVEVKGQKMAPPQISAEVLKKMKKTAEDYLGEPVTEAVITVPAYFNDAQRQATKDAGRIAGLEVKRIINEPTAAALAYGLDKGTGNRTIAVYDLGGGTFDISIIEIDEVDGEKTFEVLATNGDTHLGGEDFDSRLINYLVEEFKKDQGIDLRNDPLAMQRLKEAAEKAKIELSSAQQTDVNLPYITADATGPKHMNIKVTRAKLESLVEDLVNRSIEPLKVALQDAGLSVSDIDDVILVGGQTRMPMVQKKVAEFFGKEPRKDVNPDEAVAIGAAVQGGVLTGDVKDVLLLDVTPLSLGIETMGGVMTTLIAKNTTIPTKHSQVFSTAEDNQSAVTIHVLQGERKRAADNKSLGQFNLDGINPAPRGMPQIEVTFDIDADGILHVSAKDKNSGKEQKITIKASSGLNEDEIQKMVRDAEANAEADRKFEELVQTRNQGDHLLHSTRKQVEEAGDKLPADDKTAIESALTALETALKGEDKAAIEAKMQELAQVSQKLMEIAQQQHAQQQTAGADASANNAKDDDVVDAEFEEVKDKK

As to RRGKKLLLLLKKKGC(AlexaFluor 488) [KLR-70-C-AF488, AlexaFluor 488-conjugated KLR-70 peptide], the Kd was determined as 1730 nM.
